Laboratory results as given in patent publication US20180045741.

Target: unphosphorylated ubiquitin

B1: PINK1-3x Flag isolated from CCCP-treated cells (protein)
chain: MAVRQALGRGLQLGRALLLRFTGKPGRAYGLGRPGPAAGCVRGERPGWAAGPGAEPRRVGLGLPNRLRFFRQSVAGLAARLQRQFVVRAWGCAGPCGRAVFLAFGLGLGLIEEKQAESRRAVSACQEIQAIFTQKSKPGPDPLDTRRLQGFRLEEYLIGQSIGKGCSAAVYEATMPTLPQNLEVTKSTGLLPGRGPGTSAPGEGQERAPGAPAFPLAIKMMWNISAGSSSEAILNTMSQELVPASRVALAGEYGAVTYRKSKRGPKQLAPHPNIIRVLRAFTSSVPLLPGALVDYPDVLPSRLHPEGLGHGRTLFLVMKNYPCTLRQYLCVNTPSPRLAAMMLLQLLEGVDHLVQQGIAHRDLKSDNILVELDPDGCPWLVIADFGCCLADESIGLQLPFSSWYVDRGGNGCLMAPEVSTARPGPRAVIDYSKADAWAVGAIAYEIFGLVNPFYGQGKAHLESRSYQEAQLPALPESVPPDVRQLVRALLQREASKRPSARVAANVLHLSLWGEHILALKNLKLDKMVGWLLQQSAATLLANRLTEKCCVETKMKMLFLANLECETLCQAALLLCSWRAAL
phosphorylation of ubiquitin (Phos-tag assay): PINK1 isolated from CCCP-treated cells phosphorylates ubiquitin
